Assay [1] deals with Full baseplate complex of phage Phi4.2 (Dit, Tal, RBP1, RBP2) (Lactococcus phage Phi4.2). Description: negative stain electron microscopy; purified baseplate complexes at 0.03 mg/mL on carbon-coated grids, Ca2+ in the protein buffer; baseplate to back-to-back dimer of baseplates.
Assay [2] addresses ΔRBP1_(Phi4.2) baseplate complex (Dit, Tal, RBP2) (Lactococcus phage Phi4.2). The description is as above.

In turn, “Full baseplate complex of phage Phi4.2 (Dit, Tal, RBP1, RBP2)” came in with a stoichiometry N in assay [1] of 2. For the substance “ΔRBP1_(Phi4.2) baseplate complex (Dit, Tal, RBP2)”, the stoichiometry N in assay [2] stood at 2.

These data come from paper PMC6315561.
